Data on four molecules can be found in patent US20140366224A1 (CONSEJO SUPERIOR DE INVESTIGACIONES CIENTIFICAS, published 2014).

In test [1] the target is T1, IYO fused to split YFP (nYFP or cYFP) (Arabidopsis thaliana, UniProt Q8GYU3 1-1465).
T1 construct: BiFC construct expressed in Nicotiana benthamiana leaf epidermal cells; The position of the YFP half varied between combinations, so the order of the parts is not fixed; also called split YFP fused to IYO; not shown: nYFP or cYFP half of split YFP, fused at the N- or C-terminus (different combinations were used)
T1 sequence: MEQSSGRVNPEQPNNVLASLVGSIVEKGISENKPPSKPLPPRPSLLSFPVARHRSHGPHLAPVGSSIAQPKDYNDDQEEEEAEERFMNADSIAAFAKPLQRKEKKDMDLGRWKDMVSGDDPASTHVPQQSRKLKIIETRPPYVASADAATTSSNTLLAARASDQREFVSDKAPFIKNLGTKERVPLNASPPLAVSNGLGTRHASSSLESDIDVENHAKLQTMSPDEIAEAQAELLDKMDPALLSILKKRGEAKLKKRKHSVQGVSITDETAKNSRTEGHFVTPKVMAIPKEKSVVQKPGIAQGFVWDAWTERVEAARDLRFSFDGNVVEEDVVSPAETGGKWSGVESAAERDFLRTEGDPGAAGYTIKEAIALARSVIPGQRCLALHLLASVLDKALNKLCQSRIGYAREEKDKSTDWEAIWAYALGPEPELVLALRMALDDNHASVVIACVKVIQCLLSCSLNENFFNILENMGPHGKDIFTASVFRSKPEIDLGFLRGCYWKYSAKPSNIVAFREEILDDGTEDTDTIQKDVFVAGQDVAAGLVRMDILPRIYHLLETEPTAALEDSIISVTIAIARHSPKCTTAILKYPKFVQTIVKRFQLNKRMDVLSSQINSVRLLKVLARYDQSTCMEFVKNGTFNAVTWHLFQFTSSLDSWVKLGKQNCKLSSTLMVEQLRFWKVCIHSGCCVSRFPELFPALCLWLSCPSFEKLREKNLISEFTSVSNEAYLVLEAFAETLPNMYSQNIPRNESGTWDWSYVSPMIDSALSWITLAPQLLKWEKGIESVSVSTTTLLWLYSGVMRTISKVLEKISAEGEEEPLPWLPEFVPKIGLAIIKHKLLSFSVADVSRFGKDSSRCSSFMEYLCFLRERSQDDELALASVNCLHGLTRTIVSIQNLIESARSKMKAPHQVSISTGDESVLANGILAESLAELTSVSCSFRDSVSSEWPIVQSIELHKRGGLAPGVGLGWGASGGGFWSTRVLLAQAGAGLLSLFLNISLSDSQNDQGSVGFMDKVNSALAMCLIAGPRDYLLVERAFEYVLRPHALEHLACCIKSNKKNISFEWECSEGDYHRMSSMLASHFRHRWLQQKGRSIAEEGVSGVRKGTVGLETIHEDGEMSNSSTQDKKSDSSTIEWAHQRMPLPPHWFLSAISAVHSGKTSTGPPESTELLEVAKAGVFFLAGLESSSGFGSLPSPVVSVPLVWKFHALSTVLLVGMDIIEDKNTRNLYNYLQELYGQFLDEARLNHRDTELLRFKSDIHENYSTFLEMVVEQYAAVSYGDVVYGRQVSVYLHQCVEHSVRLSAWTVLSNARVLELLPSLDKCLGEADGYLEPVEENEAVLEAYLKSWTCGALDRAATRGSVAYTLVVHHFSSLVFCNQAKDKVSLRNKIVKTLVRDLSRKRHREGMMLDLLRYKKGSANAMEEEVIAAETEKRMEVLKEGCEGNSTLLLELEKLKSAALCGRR
Briefly: BiFC context, truncated AtRTR1. An excerpt:
(§1) Applicants tested for the in vivo interaction between IYO and AtRTR1 through a bimolecular fluorescence complementation assay in epidermal cells from Nicotiana benthamiana leaves.

The target of test [2] is T1, IYO fused to split YFP (nYFP or cYFP). Briefly: BiFC, split YFP in Nicotiana benthamiana leaves.
Excerpt: Although the bulk of AtRTR1 is present in the cytosol, we found high levels of nuclear fluorescence reconstitution when split YFP fused to IYO and AtRTR1 was expressed in Nicotiana benthamiana leaves (FIGS. 12-14). This confirms that IYO and AtRTR1 interact physically, and that they do so in the nucleus. […] To test this, Applicants analyzed the subcellular distribution of AtRTR1 in the presence or absence of co-expressed IYO. These experiments confirmed that co-expressed IYO increases the accumulation of AtRTR1 in the nucleus.
as §1

Test [3] has the same target. Briefly: BiFC (split YFP) in Nicotiana benthamiana leaf cells.
Excerpt: as §1

Positions count from the first letter of the chain named. In names and notes the source's numbering stands.

B1: C-terminal half of AtRTR1 (aa 305-735) (other, not shown: large carriers)
chain: EMGLASSAMMSDGYGVEYSVSKQPQCSMEDSLSCKLKGDLQTLDGKNTLSGSSSGSNTKGSKTKPEKSRKKIISVEYHANSYEDGEEILAAESYERHKAQDVCSSSEIVTKSCLKISGSKKLSRSVTWADQNDGRGDLCEVRNNDNAAGPSLSSNDIEDVNSLSRLALAEALATALSQAAEAVSSGNSDASDATAKAGIILLPSTHQLDEEVTEEHSEEEMTEEEPTLLKWPNKPGIPDSDLFDRDQSWFDGPPEGFNLTLSNFAVMWDSLFGWVSSSSLAYIYGKEESAHEEFLLVNGKEYPRRIIMVDGLSSEIKQTIAGCLARALPRVVTHLRLPIAISELEKGLGSLLETMSLTGAVPSFRVKEWLVIVLLFLDALSVSRIPRIAPYISNRDKILEGSGIGNEEYETMKDILLPLGRVPQFATRSGA
notes: also called truncated C-terminal half of AtRTR1; C-terminal half of RTR1
With B1, the binding result in test [1] is “binds”.

B2: AtRTR1 (At5g26760) full-length, fused to split YFP (nYFP or cYFP) (other)
chain: MAKDNEAIAINDAVHKLQLYMLENTTDQNQLFAARKLMSRSDYEDVVTERAIAKLCGYTLCQRFLPSDVSRRGKYRISLKDHKVYDLQETSKFCSAGCLIDSKTFSGSLQEARTLEFDSVKLNEILDLFGDSLEVKGSLDVNKDLDLSKLMIKENFGVRGEELSLEKWMGPSNAVEGYVPFDRSKSSNDSKATTQSNQEKHEMDFTSTVIMPDVNSVSKLPPQTKQASTVVESVDGKGKTVLKEQTVVPPTKKVSRFRREKEKEKKTFGVDGMGCAQEKTTVLPRKILSFCNEIEKDFKNFGFDEMGLASSAMMSDGYGVEYSVSKQPQCSMEDSLSCKLKGDLQTLDGKNTLSGSSSGSNTKGSKTKPEKSRKKIISVEYHANSYEDGEEILAAESYERHKAQDVCSSSEIVTKSCLKISGSKKLSRSVTWADQNDGRGDLCEVRNNDNAAGPSLSSNDIEDVNSLSRLALAEALATALSQAAEAVSSGNSDASDATAKAGIILLPSTHQLDEEVTEEHSEEEMTEEEPTLLKWPNKPGIPDSDLFDRDQSWFDGPPEGFNLTLSNFAVMWDSLFGWVSSSSLAYIYGKEESAHEEFLLVNGKEYPRRIIMVDGLSSEIKQTIAGCLARALPRVVTHLRLPIAISELEKGLGSLLETMSLTGAVPSFRVKEWLVIVLLFLDALSVSRIPRIAPYISNRDKILEGSGIGNEEYETMKDILLPLGRVPQFATRSGA
notes: Wild-type full-length AtRTR1 in BiFC in Nicotiana benthamiana leaves; The position of the YFP half varied; also called split YFP fused to AtRTR1; not shown: nYFP or cYFP half of split YFP, fused at the N- or C-terminus (different combinations were used)
Take B2: in test [2], the binding result is “binds”.

B3: full-length AtRTR1 C94A/C98A (other, not shown: large carriers)
chain: B2 chain with C94A, C98A
notes: The putative zinc-coordinating cysteines are substituted by alanine
In the case of B3, in test [3], the binding result is “no binding”.

B4: full-length AtRTR1 C56A/C61A (other, not shown: large carriers)
chain: B2 chain with C56A, C61A
notes: as for B3
For the molecule B4, in test [3], the binding result is reported as “no binding”.
